The record followed here is PMC9896928.

For this assay, the target named is glutathione transferase (GST) tag-fused cGAS. In words: SEC + other: fluorescence correlation spectroscopy.

Consider “glutathione transferase (GST) tag-fused cGAS (enzyme)”, for which the stoichiometry N was found to be 2.

One may read the stoichiometry N as the number of molecules, sites or subunits per partner or assembly.
